Source: the DeepSol protein solubility set

Test: soluble on expression in E. coli; label from the status in PepcDB or PDB records

Soluble on expression in E. coli, not soluble:
MGSDKIHHHHHHMRANRIGYVYSNKRFAGELLEFNTLEGYEYSFTYAASYIASGLPQIGYKLPITHEPYRRNYLPPFFANLMSEGWVRRHQARIARLDQDDKFGLLLGNGAELIGPVSVFTEYRGDNISAAIEVIAVPMKSLKGYQIDFPRCEFNEVAMESLGGVSISGVQPKMFLTYAEGNPKTLTNAVGMGPYIVKPSPNDFPELAENEFMVMQLCKAVGFNVAEHHLVPFSCGQLAYVTARFDLDRETGRRHEFIEDLASALNVAPGNKSSDTLSYEKAIKEAYQLSGGHVQLLKDGFLQVLMAYIVGNNDLHLKNISLSRASDSNRASGYTPIYDMVSVAPYRQYDNSGELSIWLLESEVERGFSTSSYEHYGYYTGHDFITFAEAIGLGERAGKVLMNDLGKKVAKARDKVIANAPGSEQLKQIISERITARLSTLTRPALR
TTSLRAYRLGEHGQVLEQRALSAGIMQLPTTPRLISGQLCSDGFELAFDQACGDWLDAEPGLPVIACGMVGSAQGWREAAYRETPASVNQLSAALQTVRSQRGVTVHIIPGVLQRSTLPNVMRGEETQVLGVLAGLETQLDNQPLLIGLPGSHSKWVQVTRGRIVHFDTFMTGEVYAALCAHTILGRTMQPAEAFDDQAFDRGLSIALSDTGSAGPLSTIFSTRTLGLTGQLAASAQPDYLSGLLFGHELGAIARLHLHTHEQLPAVILIGSEALCARYSRGLTVCGFPQVTLAEQATERGLWQVAVQAGLIAR
MSINVDEFQCYRIPNVYVQWYDLEPTIHWLTGGNSNSRQIQEMDQKKKKIRSTSAYALFFRERQSLEKRAAPYATFGQISQKIARQWDSLTEEEKKAYKQRCEKNRKTSIANAVEEKARQLLTASKFQ
MHENKYLTIYHDLISRIRRGEWKAYDKLPSEHELAARYETSRETIRKALHLLSEHGYIQKMKGKGSIVLDVGKYDFPVSGLVSFKELAQTMKQPVRTIVHELAIIKPDRELRQHLRASSKDEVWKVVRVREIGGERIILDKDFFLKKHVPLLTKEICEDSIYEYLETKLHLPISFAKKEISVDEATDEDRRYLDLHGDDRVVVVKNYVYLSDAALFQYTESRHRLDKFRFVDFARRK
MGSDKIHHHHHHMKSNVVVKYPVNSELANYAEKFWKKELAIYNLSLILNKMTPFVKRRSESYKSSLSAVKEIFKNVDDFQNFLNSVLRRSLDEYRVFFENYERLFNSFSSKIFSMRTKSRLVVGLGDESVYETSIRLHRNYGVPYIPGSALKGVAKHYAFSILARENGDEILRIYESVKEDLKARIAKRDKIKKNDVPEDYYLTAAVIQELFEKKFDELGAIRNTRVEIGDTVISVGDIVKIFGTQKEEGSVIFFDAFPTPEQLKDKPNLELDIMNPHYQPYYQHGEPPGDWHSPNPIFFLTVPAGVEFTFAVASRDLDDLAEKAEKLLKEALKKFGVGAKTSLGYGRFDARDDR
MVHHDGFQTVKGTIDWEHPMYKLYEKAKRNGKWNPADIDFSQDKEDFARLTSEEKIAALPLVAGFSAGEEAVTLDILPMAHALARQGRLEDVMFLTTFMHDEAKHVEMFSRWQQEVGIGAMDLSVFHNDHYKRIFYEALPEAMNRLYTDDSPEAVIRAATVYNMIVEGTLAESGYYTFRQIYKKAGLFPGLLQGIDYLNMDEGRHIQFGLYTIQRLVNENERYYDLFIQYMDELWPHVVGYVAYLTELGKRQQQLARTYALEIDYDMLNNYVVKQFNIRKKQISRAKRVDSIEELEKTVAES
MIHGIGVDLIEIDRIQALYSKQPKLVERILTKNEQHKFNNFTHEQRKIEFLAGRFATKEAFSKALGTGLGKHVAFNDIDCYNDELGKPKIDYEGFIVHVSISHTEHYAMSQVVLEKSAF
MSLTRCVLEGMKTKHALRHHMKLHKGIKEYECKECHRRFAQKVNMLKHCKRHTGIKDFMCELCGKTFSERNTMETHKLIHTVGKQWTCSVCDKKYVTEYMLQKHVQLTHDKVEAQSCQLCGTKVSTRASMSRHMRRKHPEVLAVRIDEGHHHHHH
MAHHHHHHMRTSAAVLSLFRGQRRLSCTMTAPLATRRFCRSTGDGLQKDWRPLSTTPHQPGPDTPASPSSSKSSANLDACEGALRAAPEGPASSKRGSSFASLALQRGSGEKANRMDRTAGLYKHTIVTETDKAPTGVARSATASSVSTGAGLTAERKKYATIPLRHCGTRAEPGNGSRSASSPPSASNSKREMTAQTEAPKTIKTAARPQDGPMVPDYGPLRATGLWSVEEVLDESKKTVDFRRIDDVESEIIEDHTNAEEALVPYAEEEAWKHKLMFEYKFKKTPKHLTWKEMGEEIECMDCVIELDEHRPEELFTIFFYFTDKKTGTRDLVWSARNDVSYSEGFTDLLAAIGACLGRSDVHRTIRFDDGVGCTRDLTFRKRSRYTSDVYVAFRPPEKYDKFQRKEEKDEYEASMEREGMSTWGYHPSLMDPEFSELDFKDPEGTYEVAISAHGFSFVVLRAIGRLLARPMKDFYRPSQLMRTAKVRTEDEIGFTHALKGWLGVDEQLYPHYTPIEALQDHWLGKDAPFSLCAIVNKLREMNYLKKENPEFQSWLSVRSHDTHLAIRNMGVKLLGVGASTLFVPVSHNATVNRLLPKPQQRRLESRFSLNAVLGLPDETRKLKDFKQITGHDRITDVPTSSTRETATIASPAQDEASVKNSPT
MGSDKIHHHHHHMSYLLRKPQSHEVSNGVKLVHEVTTSNSDLTYVEFKVLDLASGSSYTEELKKQEICIVAVTGKITVTDHESTFENIGTRESYFERKPTDSVYISNDRAFEITAVSDARVALCYSPSEKQLPTKLIKAEDNGIEHRGQFSNKRTVHNILPDSDPSANSLLVVEVYTDSGNWSSYPPHKHDQDNLPEESFLEETYYHELDPGQGFVFQRVYTDDRSIDETMTVGNENVVIVPAGYHPVGVPDGYTSYYLNVMAGPTRKWKFYNDPAHEWILER

Soluble on expression in E. coli, soluble:
MKAYLGLYTARLETPARSLKEKRALIKPALERLKARFPVSAARLYGLDAWGYEVVGFTLLGNDPAWVEETMRAAARFLAEAGGFQVALEEFRLEAFELDGLL
GPGSMTTSASLFKKFTLENVAQIASSSHKEQKEVREELAEQYPALEAYWEEILPKKSDIFIIRCQGQVHCITLVSSQPEVLFFNHHGGPYLPHLKLLHKYPFMLTRHQVDIGGCRYVISGANVMCQGLTSAGGIVADGTEEGEVVAVYVEGKEHAVAVGTMLMSSDEIKEKNKGPCIENIHHLGDGLWMNPVLSASHISV
MDSELKEEIPVHEEFILCGGAETQVLKCGPWTDLFHDQSVKRPKLLIFIIPGNPGFSAFYVPFAKALYSLTNRRFPVWTISHAGHALAPKDKKILTTSEDSNAQEIKDIYGLNGQIEHKLAFLRTHVPKDMKLVLIGHSIGSYFTLQMLKRVPELPVIRAFLLFPTIERMSESPNGRIATPLLCWFRYVLYVTGYLLLKPCPETIKSLLIRRGLQVMNLENEFSPLNILEPFCLANAAYLGGQEMMEVVKRDDETIKEHLCKLTFYYGTIDPWCPKEYYEDIKKDFPEGDIRLCEKNIPHAFITHFNQEMADMIADSLKDDLSKM
MTWPAFSLGVWGYPERMDPRVPPGQFVTERFPILTYGETPKVAKEAWRLEVTGLVETPLVLTYEDLLARPQVELTRDFHCVTRWSRLDVTWKGVRTRDLLEEARPRPEAVAALVESYGGYTTNLLLEDLLREDVLLAHTLFGKPLPPERGGPVRLLVPHLYAWKSAKWVRRIVLLDHLELGFWERLGYHWRGDPWKEERFQEGPVPAHRIRFAARNKPGR
MSLFQVPDSEGGRAGSRAMKPPGGESSNLFGSPEEATPSSRPNRMASNIFGPTEEPQNIPKRTNPPGGKGSGIFDESTPVQTRQHLNPPGGKTSDIFGSPVTATSRLAHPNKPKDHVFLCEGEEPKSDLKAARSIPAGAEPGEKGSARKAGPAKEQEPMPTVDSHEPRLGPRPRSHNKVLNPPGGKSSISFYEGHHHHHH
MAEILERSGYLVKVRVEVPADRVKASYEALLKDLASRVRVPGFRPGKAPLKVVEARLGREALLQDLKERLVEETYPEAVRELGLSPVAARVVEQDLSEGEGFRYVAEVENYPEVRLPDWRSFALEVSPPEVTEEMVEKALEELRQRYAELVPVEREAQEKDHLFVRTEEGAEFPIDLAKALPHVREALLGKKAGDVVMVPVLNDKGEKVREVRTEVLEVKTLKLPELDEEFAKTLEAESLEDLKNRVRESLKRQAERAYEEARERAFLEKLAEGLEVEIPPSMLRAEERHLLEHLAEDLYRQGISLEAYLEALKEKGELEKFQEDLRKEAEKRVRIALAREKLAEELNPEVSEEEWQAYLQAAARAYGVAVQDLRRQFGEEGLARLKERLRQDKAVQEALKALG
GPYLVIVEQPKQRGFRFRYGCEGPSHGGLPGASSEKGRKTYPTVKICNYEGPAKIEVDLVTHSDPPRAHAHSLVGKQCSELGICAVSVGPKDMTAQFNNLGVLHVTKKNMMGTMIQKLQRQRLRSRPQGLTEAEQRELEQEAKELKKVMDLSIVRLRFSAFLRDSDGSFSLPLKPVISQPIHDSKSPGASNLKISRMDKTAGSVRGGDEVYLLCDKVQKDDIEVRFYEDDENGWQAFGDFSPTDVHKQYAIVFRTPPYHKMKIERPVTVFLQLKRKRGGDVSDSKQFTYYPLV
MMRWIRHMFAPSAHRSFPPRSMDSIAAAIAASEQLHTGQVMVAVEADLSAAALWRGHGARQRAEQAFAQLRTWDTEANNGVLIYLLLADHAIEVVADRGLRALVPDAAWAEVCRRMQQFLRDGQHEAAVLAGVEAVTELLCAHFPAAAQAQHEDELPNRPHILGLEHHHHHH
MSMGKQGVKTAVPKLRFPEFRHSEAWELKKLSCFLVEQKKRNKNLSFGPQEVLSVSGEHGCVNQIELLGRSYAGVSLANYHVVETGDIVYTKSPLKRNPFGIIKENKGKPGVVSTLYAVYRTTVFGNPAFLDHYFSGDYNLNSYLQPIVRKGAKNDMKVSNAAVLAGEVFAPEVEEQKKIADFLTSLDDLISVQVLKVEALKVHKRGLMQELFPREGEASPRLRFPEFSNASGWTLGKASDIIDVLQGYGFPERLQGGREGNFPFYKVSDISACVDAGGILLDKANNHIDADVLEELRAKLMPIGSTVFAKIGEAIRSNKRAITSRPCLVDNNVAGVKAITGLAHDRFVYYMWCQIPLIEYAGGVVPAVKKSLMEQIPVCYPKFDEQQRIADFLSSLDAKIAAEFDQLAALRTHKKGLMQQLFPLSEVGLLEHHHHHH
MLEINKIHQMNCFDFLDQVENKSVQLAVIDPPYNLSKADWDSFDSHNEFLAFTYRWIDKVLDKLDKDGSLYIFNTPFNCAFICQYLVSKGMIFQNWITWDKRDGMGSAKRRFSTGQETILFFSKSKNHTFNYDEVRVPYESTDRIKHASEKGILKNGKRWFPNPNGRLCGEVWHFSSQRHKEKVNGKTVKLTHITPKPRDLIERIIRASSNPNDLVLDCFMGSGTTAIVAKKLGRNFIGCDMNAEYVNQANFVLNQLEIN
MLSSSPASCTSPSPGTDNPDKKVHWASEKRRRASSTDSESKTHLDISKLPRSRRPSRLTVKYDRGHLQRWLEMEQWVDAQVQELFQGQEESSEPEIDLEALMDLSTEDQRTQLEAILQDCPGNREPFISELLSQLKRLRRLSRPSK
MKVIIFYTKTGGGHLSACKSLEESLNSMNIPVVTLDSLEFAGHLVSKEICSAYNYIVKSVPELFGALYNAGEKISDHNKKSIIYKLNSFYADNILTVLEEEQPDIIISTHIFATQSLSYLKQKNKVKALTASIVTDYTCAPFWEETDLDYYFLPHKDLIKEFKDKGLDSSKLIAFGLPIDSKFKVKTPKEKAKFNLALKKDKPHILIMGGSMGAGSVKDTTLYISKHLKECNITTICGNNKELFKEISEIKKSNPKIHVLQFTHEMNELMDSADILITKPGGLTSTEAMNKSLPIIMINPIPGVESANCNFFMKHNLGIKSNSLHETLKVCEKLISDKNFYEKIVSSQKLNSNINAAEDICKFLITKYHEIQYNSDNNSLLEHHHHHH
